Reference: paper PMC6761149

Target: Q8DLC1
Assay: SAXS; ESRF BM29, 10 °C, 20 mM Tris/HCl pH 7.5, 500 mM NaCl, 20% (v/v) glycerol; dark holoprotein (NADPH, Pchlide) at 0.65 mg ml^-1; monomer content from I(0)
Details: other: SAXS

B1: light-dependent protochlorophyllide oxidoreductase of Thermosynechococcus elongatus BP-1 (TeLPOR) (protein)
chain: MSDQPRPTVIITGASSGVGLYATKALANRGWHVIMACRNLEKAEQAAKNLQIPPEAYTILHLDLSSLASVRGFVESFRALNRPLRALVCNAAVYYPLLKEPIYSVDGYEITVATNHLGHFLLINLLLEDLKNSPESDKRLVILGTVTANRKELGGKIPIPAPPDLGNLEGFEKGFKKPIAMINGKPFKSGKAYKDSKLCNMLTARELHRRFHESTGIVFNSLYPGCVADTPLFRHHFPLFQKLFPLFQKKITGGYVSQELAGERVAMVVADPEFRQSGVHWSWGNRQKEGRKAFVQELSAEASDEQKARRLWELSEKLVGLA
  monomer content from I(0), with NADPH and Pchlide: monomer content from I(0): 85.9%
